# Assays:
# [1] = target: recombinant SARS-CoV-2 spike protein (S) (SARS-CoV-2, UniProt P0DTC2 16-1213)
# [2] = target: recombinant human vimentin (human, UniProt P08670 2-466, limits assumed); assay: ELISA: increasing concentrations of A2 variant on recombinant human vimentin, bound A2 detected with anti-A2 antibody and a secondary HRP conjugate
# Sequence of recombinant human vimentin (P08670 2-466 limits assumed): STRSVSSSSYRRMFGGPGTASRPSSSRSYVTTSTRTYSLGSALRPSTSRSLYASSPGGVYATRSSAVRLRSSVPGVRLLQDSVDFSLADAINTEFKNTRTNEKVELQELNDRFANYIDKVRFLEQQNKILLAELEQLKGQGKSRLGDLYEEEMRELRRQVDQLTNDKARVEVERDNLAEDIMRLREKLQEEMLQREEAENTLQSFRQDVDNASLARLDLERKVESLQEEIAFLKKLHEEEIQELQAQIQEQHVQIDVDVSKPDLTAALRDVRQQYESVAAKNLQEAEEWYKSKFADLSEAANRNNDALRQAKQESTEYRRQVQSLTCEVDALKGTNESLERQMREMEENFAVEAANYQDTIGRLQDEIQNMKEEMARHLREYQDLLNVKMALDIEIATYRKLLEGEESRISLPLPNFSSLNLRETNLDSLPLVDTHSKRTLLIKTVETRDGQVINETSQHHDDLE
Binder,binding result [1],EC50 (read off the curve) [2] [nM]
"recombinant A2 domain of human von Willebrand factor (WT A2 protein) (other, conjugated to Alexa Fluor 488 in the confocal microscopy experiments only, not shown: histidine tag (vector pQE-9/VWF-A2)) GLLGVSTLGPKRNSMVLDVAFVLEGSDKIGEADFNRSKEFMEEVIQRMDVGQDSIHVTVLQYSYMVTVEYPFSEAQSKGDILQRVREIRYQGGNRTNTGLALRYLSDHSFLVSQGDREQAPNLVYMVTGNPASDEIKRLPGDIQVVPIGVGPNANVQELERIGWPNAPILIQDFETLPREAPDLVLQR",no binding,~40
"recombinant A2 (E1567A) mutant of the A2 domain of human von Willebrand factor (other, also called A2 mutant; A2 mutant protein; not shown: Histidine tag from the pQE-9 vector) GLLGVSTLGPKRNSMVLDVAFVLEGSDKIGEADFNRSKEFMEEVIQRMDVGQDSIHVTVLQYSYMVTVEYPFSEAQSKGDILQRVRAIRYQGGNRTNTGLALRYLSDHSFLVSQGDREQAPNLVYMVTGNPASDEIKRLPGDIQVVPIGVGPNANVQELERIGWPNAPILIQDFETLPREAPDLVLQR",–,~70
